± gives the standard deviation of the averaged measurements.
Assay: total protein half-life in vivo (active degradation + dilution); higher = more stable protein
[1] = E. coli NCM3722 delta-clpP delta-lon delta-hslV, growth: N-lim chemostat, doubling time 6 h
[2] = E. coli NCM3722 delta-clpP, growth: N-lim chemostat, doubling time 6 h
[3] = E. coli NCM3722 delta-hslV, growth: N-lim chemostat, doubling time 6 h
[4] = E. coli NCM3722 delta-lon, growth: N-lim chemostat, doubling time 6 h
[5] = E. coli NCM3722 delta-smpB, growth: N-lim chemostat, doubling time 6 h
[6] = wild type E. coli NCM3722, growth: C-lim chemostat, doubling time 3 h
[7] = wild type E. coli NCM3722, growth: C-lim chemostat, doubling time 6 h
[8] = wild type E. coli NCM3722, growth: C-lim chemostat, doubling time 12 h
[9] = wild type E. coli NCM3722, growth: N-lim chemostat, doubling time 6 h
[10] = wild type E. coli NCM3722, growth: N-lim chemostat, doubling time 12 h
[11] = wild type E. coli NCM3722, growth: P-lim chemostat, doubling time 6 h
[12] = wild type E. coli NCM3722, growth: P-lim chemostat, doubling time 12 h

Row | Sequence | total protein half-life in vivo [1] | total protein half-life in vivo [2] | total protein half-life in vivo [3] | total protein half-life in vivo [4] | total protein half-life in vivo [5] | total protein half-life in vivo [6] | total protein half-life in vivo [7] | total protein half-life in vivo [8] | total protein half-life in vivo [9] | total protein half-life in vivo [10] | total protein half-life in vivo [11] | total protein half-life in vivo [12]
1 | MAQHTVYFPDAFLTQMREAMPSTLSFDDFLAACQRPLRRSIRVNTLKISVADFLQLTAPYGWTLTPIPWCEEGFWIERDNEDALPLGSTAEHLSGLFYIQEASSMLPVAALFADGNAPQRVMDVAAAPGSKTTQISARMNNEGAILANEFSASRVKVLHANISRCGISNVALTHFDGRVFGAAVPEMFDAILLDAPCSGEGVVRKDPDALKNWSPESNQEIAATQRELIDSAFHALRPGGTLVYSTCTLNQEENEAVCLWLKETYPDAVEFLPLGDLFPGANKALTEEGFLHVFPQIYDCEGFFVARLRKTQAIPALPAPKYKVGNFPFSPVKDREAGQIRQAATGVGLNWDENLRLWQRDKELWLFPVGIEALIGKVRFSRLGIKLAETHNKGYRWQHEAVIALASPDNMNAFELTPQEAEEWYRGRDVYPQAAPVADDVLVTFQHQPIGLAKRIGSRLKNSYPRELVRDGKLFTGNA | 4.91 ± 0.059 h | 4.53 ± 0.36 h | 4.4 ± 0.12 h | 5.21 ± 0.62 h | 4.38 ± 0.21 h | 2.99 ± 0.3 h | 5.79 ± 1.4 h | 9.34 ± 2.6 h | 4.63 ± 0.14 h | 8.3 ± 0.63 h | 4.78 ± 1.1 h | 9.91 ± 0.92 h
2 | MSMSHINYNHLYYFWHVYKEGSVVGAAEALYLTPQTITGQIRALEERLQGKLFKRKGRGLEPSELGELVYRYADKMFTLSQEMLDIVNYRKESNLLFDVGVADALSKRLVSSVLNAAVVEGEPIHLRCFESTHEMLLEQLSQHKLDMIISDCPIDSTQQEGLFSVRIGECGVSFWCTNPPPEKPFPACLEERRLLIPGRRSMLGRKLLNWFNSQGLNVEILGEFDDAALMKAFGAMHNAIFVAPTLYAYDFYADKTVVEIGRVENVMEEYHAIFAERMIQHPAVQRICNTDYSALFSPAVR [P0A9G2] | 6.03 ± 0.4 h | 6.18 h | 4.38 h | 5.99 ± 1.4 h | 5.21 ± 0.34 h | – | 5.51 h | 9.31 h | 5.76 ± 1.2 h | – | 4.93 ± 1.5 h | 10.2 h
3 | MGAELVKWVKSHKIDAHIITFVAKMPYIDSIKLLEAGAKGCVWKTSHPAKLNRAIDSISNGYTYFDSVHMDCEKISSRYSSDNQLTNRESEILQLIADGKTNKEIANFLQLSRKTVETHRLNIMKKLDVHSGIELIKTALRMGVCTI | 5.42 h | – | – | 5.01 h | 5.08 ± 0.25 h | 2.7 h | 4.55 ± 1.5 h | 8.41 ± 2.9 h | 5.22 ± 0.2 h | – | – | –
4 | MYQPDFPPVPFRSGLYPVVDSVQWIERLLDAGVRTLQLRIKDRRDEEVEADVVAAIALGRRYNARLFINDYWRLAIKHQAYGVHLGQEDLQATDLNAIRAAGLRLGVSTHDDMEIDVALAARPSYIALGHVFPTQTKQMPSAPQGLEQLARHVERLADYPTVAIGGISLARAPAVIATGVGSIAVVSAITQAADWRLATAQLLEIAGVGDE | 6.1 ± 1.1 h | 3.05 ± 0.11 h | 3.34 ± 0.23 h | 4.173 ± 0.028 h | 2.77 ± 0.045 h | 2.31 ± 0.52 h | 4.76 ± 0.58 h | 6.78 ± 0.74 h | 3.01 ± 0.54 h | 5.18 ± 0.5 h | 2.01 ± 0.57 h | 3.48 ± 0.66 h
5 | MNIPQLTALCLRYHGVLLDASEEVVHVAVVDAPSHELLDALHFATTKRIEITCWTRQQMEGHASRTQQTLPVAVQEKHQPKAELLTRTLQSALEQRASDIHIEPADNAYRIRLRIDGVLHPLPDVSPDAGVALTARLKVLGNLDIAEHRLPQDGQFTVELAGNAVSFRIATLPCRGGEKVVLRLLQQVGQALDVNTLGMQPLQLADFAHALQQPQGLVLVTGPTGSGKTVTLYSALQKLNTADINICSVEDPVEIPIAGLNQTQIHPRAGLTFQGVLRALLRQDPDVIMIGEIRDGETAEIAIKAAQTGHLVLSTLHTNSTCETLVRLQQMGVARWMLSSALTLVIAQRLVRKLCPHCRRQQGEPIHIPDNVWPSPLPHWQAPGCVHCYHGFYGRTALFEVLPITPVIRQLISANTDVESLETHARQAGMRTLFENGCLAVEQGLTTFEELIRVLGMPHGE | 3.89 h | – | – | – | – | – | – | – | – | – | – | –
6 | MTTLTLVLTAVGSVLLLLFLVMKARMHAFLALMVVSMGAGLFSGMPLDKIAATMEKGMGGTLGFLAVVVALGAMFGKILHETGAVDQIAVKMLKSFGHSRAHYAIGLAGLVCALPLFFEVAIVLLISVAFSMARHTGTNLVKLVIPLFAGVAAAAAFLVPGPAPMLLASQMNADFGWMILIGLCAAIPGMIIAGPLWGNFISRYVELHIPDDISEPHLGEGKMPSFGFSLSLILLPLVLVGLKTIAARFVPEGSTAYEWFEFIGHPFTAILVACLVAIYGLAMRQGMPKDKVMEICGHALQPAGIILLVIGAGGVFKQVLVDSGVGPALGEALTGMGLPIAITCFVLAAAVRIIQGSATVACLTAVGLVMPVIEQLNYSGAQMAALSICIAGGSIVVSHVNDAGFWLFGKFTGATEAETLKTWTMMETILGTVGAIVGMIAFQLLS [P0AC96] | – | 6.49 h | 5.93 h | – | – | – | – | – | 5.18 h | – | – | 12.9 h
7 | MRNKPFYLLCAFLWLAVSHALAADSTITIRGYVRDNGCSVAAESTNFTVDLMENAAKQFNNIGATTPVVPFRILLSPCGNAVSAVKVGFTGVADSHNANLLALENTVSAASGLGIQLLNEQQNQIPLNAPSSALSWTTLTPGKPNTLNFYARLMATQVPVTAGHINATATFTLEYQ | – | – | – | – | 5.58 ± 0.25 h | 2.61 h | 5.55 h | 15.7 h | > 8 h | 13.4 h | 5.52 h | 9.2 h
